Reference: patent US20260250404A1 (Genmab, published 2026)

Tests used:
[1] = molecular target: T1, recombinant His-tagged human FcγRIIIa, 176-Val [V] / V158 variant (human, UniProt P08637 17-208); experiment: SPR (Biacore 8K), His-tagged FcγR captured on anti-His chip, antibody injected, binding response (RU), n=3
T1 construct: also called FcγRIIIa-V; FcγRIIIa-V158

[2] = molecular target: T2, recombinant His-tagged human FcγRIIb (human, UniProt P31994 43-217, limits assumed); experiment: as above
T2 sequence (looked up): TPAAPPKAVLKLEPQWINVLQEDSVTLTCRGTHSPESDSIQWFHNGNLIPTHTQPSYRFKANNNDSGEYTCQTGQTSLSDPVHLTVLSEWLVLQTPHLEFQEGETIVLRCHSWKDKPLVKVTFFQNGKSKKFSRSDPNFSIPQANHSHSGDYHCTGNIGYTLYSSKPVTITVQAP

[3] = molecular target: T3, recombinant human neonatal Fc receptor FcRn (SinoBiological CT071-H27H-B) (human, UniProt P55899 24-297; P61769 21-119); experiment: SPR at pH 6.0; previous in-house experiments with the same assay set-up; previous in-house experiments, same assay set-up, 12 data points
T3 construct: Composition of the bought protein is not described

[4] = molecular target: T4, recombinant His-tagged human FcγRIIa, 167-His [H] / H131 variant (human, UniProt P12318 34-218, limits assumed); experiment: SPR (Biacore 8K), His-tagged FcγR captured on anti-His chip, antibody injected, binding response (RU), n=3
T4 construct: catalogue numbers differ; also called FcγRIIa-H; FcγRIIa-H131
T4 sequence (looked up): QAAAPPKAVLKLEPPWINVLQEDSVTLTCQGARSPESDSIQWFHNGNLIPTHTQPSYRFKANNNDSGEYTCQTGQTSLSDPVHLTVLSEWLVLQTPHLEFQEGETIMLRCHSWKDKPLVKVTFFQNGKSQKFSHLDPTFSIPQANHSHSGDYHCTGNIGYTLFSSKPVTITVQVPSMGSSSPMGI

[5] = molecular target: T5, recombinant His-tagged human FcγRIIa, 167-Arg [R] / R131 variant (human, UniProt P12318 34-218, limits assumed); experiment: as above
T5 construct: catalogue numbers differ; also called FcγRIIa-R; FcγRIIa-R131
T5 sequence (looked up): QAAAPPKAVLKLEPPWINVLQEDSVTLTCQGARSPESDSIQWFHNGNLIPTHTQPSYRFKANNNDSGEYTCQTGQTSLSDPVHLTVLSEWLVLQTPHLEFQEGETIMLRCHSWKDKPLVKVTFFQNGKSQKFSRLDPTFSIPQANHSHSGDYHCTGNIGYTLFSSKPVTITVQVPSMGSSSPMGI

[6] = molecular target: T6, recombinant His-tagged human FcγRIa (Sino Biological 10256-H08S-B) (human, UniProt P12314 16-288); experiment: as above
T6 sequence (P12314 16-288 limits assumed, stated change not applied): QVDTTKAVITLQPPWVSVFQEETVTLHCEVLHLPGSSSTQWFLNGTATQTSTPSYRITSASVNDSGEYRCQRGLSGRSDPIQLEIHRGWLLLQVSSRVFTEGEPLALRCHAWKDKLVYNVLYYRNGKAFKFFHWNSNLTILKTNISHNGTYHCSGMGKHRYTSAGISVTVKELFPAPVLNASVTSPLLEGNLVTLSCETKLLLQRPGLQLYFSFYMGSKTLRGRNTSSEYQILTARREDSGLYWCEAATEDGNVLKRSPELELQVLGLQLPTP

[7] = molecular target: T7, recombinant His-tagged human FcγRIIIa, 176-Phe [F] / F158 variant (human, UniProt P08637 17-208); experiment: as above
T7 construct: also called FcγRIIIa-F; FcγRIIIa-F158
T7 sequence (P08637 17-208 limits assumed, change not shown): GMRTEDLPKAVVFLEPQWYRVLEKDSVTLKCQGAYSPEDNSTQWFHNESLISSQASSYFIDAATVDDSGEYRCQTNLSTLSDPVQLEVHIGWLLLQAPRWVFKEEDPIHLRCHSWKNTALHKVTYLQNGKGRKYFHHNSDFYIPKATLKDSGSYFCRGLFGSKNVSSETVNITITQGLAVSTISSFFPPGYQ

[8] = molecular target: T6, recombinant His-tagged human FcγRIa …; experiment: SPR (Biacore 8K), His-tagged FcγR captured on anti-His chip, antibody injected, relative binding response (RU), n=1
[9] = molecular target: T8, human FcγRIa on the cell surface (transfected CHO-S cells, M0/M1 macrophages, hMDM, FcγRI effector reporter … (human, UniProt P12314 16-374)); experiment: flow cytometry on CHO-S cells transiently expressing human FcγRIa, PE goat anti-human IgG F(ab')2, % PE+ cells
T8 construct: whole, on cells; also called CD64
T8 sequence (P12314 16-374): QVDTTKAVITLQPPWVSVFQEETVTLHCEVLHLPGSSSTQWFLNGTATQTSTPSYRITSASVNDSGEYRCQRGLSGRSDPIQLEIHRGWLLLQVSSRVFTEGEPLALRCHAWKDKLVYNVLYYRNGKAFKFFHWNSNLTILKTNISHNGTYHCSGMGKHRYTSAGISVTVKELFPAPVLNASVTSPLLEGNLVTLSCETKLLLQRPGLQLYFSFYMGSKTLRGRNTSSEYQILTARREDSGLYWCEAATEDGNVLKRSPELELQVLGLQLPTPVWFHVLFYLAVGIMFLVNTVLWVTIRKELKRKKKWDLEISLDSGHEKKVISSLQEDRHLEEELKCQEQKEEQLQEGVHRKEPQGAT

T1 sequence (P08637 other isoform, or with tags, fused parts or gaps mutant limits assumed): as the sequence (P08637 17-208 limits assumed, change not shown) above, with F160V counted along it

B1: IgG1-ctrl (b12 antigen-binding domains, wild-type human IgG1m(f) Fc) (antibody)
heavy: not shown
light: EIVLTQSPGTLSLSPGERATFSCRSSHSIRSRRVAWYQHKPGQAPRLVIHGVSNRASGISDRFSGSGSGTDFTLTITRVEPEDFALYYCQVYGASSYTFGQGTKLERKRTVAAPSVFIFPPSDEQLKSGTASVVCLLNNFYPREAKVQWKVDNALQSGNSQESVTEQDSKDSTYSLSSTLTLSKADYEKHKVYACEVTHQGLSSPVTKSFNRGEC
- binding result [1]: binds
- binding result [2]: binds
- Kd [3]: 34 nM
- binding result [4]: binds
- binding result [5]: binds
- EC50 (read off the curve) [6]: ~30 nM
- binding result [7]: binds
- EC50 (read off the curve) [8]: ~30 nM
- EC50 (read off the curve) [9]: ~0.02 µg/mL
